Read-outs that look alike come from different tables or passages of the source.
B1: TNNT2 81mer template (ssRNA)
RNA: GGGAAUGGAUCCACAUCUACGAAUUCCCUGUCUCGCUUUUCCCCUCCGCUGCGGCCACAAGACUCGAUACGUGACGAACCU
B2: H01 CA1-2 (ssRNA)
RNA: GGGAAUGGAUCCACAUCUACGAAUUCCCUCAUUUCAUAUUGCGCUGCAAUUCCUGUUCAAGACUCGAUACGUGACGAACCU
B3: F06 UCCA 81mer (ssRNA)
RNA: GGGAAUGGAUCCACAUCUACGAAUUCCCGAUCCUCCAUAUGCCAUCCGCUGCAGUCACAAGACUCGAUACGUGACGAACCU

Tests used:
Assay in all cases: EMSA
MBNL1 (GST-MBNL1 1-260) [1] = biological target: T1, MBNL1 (GST-MBNL1 1-260) (UniProt Q9NR56 1-260)
T1 sequence: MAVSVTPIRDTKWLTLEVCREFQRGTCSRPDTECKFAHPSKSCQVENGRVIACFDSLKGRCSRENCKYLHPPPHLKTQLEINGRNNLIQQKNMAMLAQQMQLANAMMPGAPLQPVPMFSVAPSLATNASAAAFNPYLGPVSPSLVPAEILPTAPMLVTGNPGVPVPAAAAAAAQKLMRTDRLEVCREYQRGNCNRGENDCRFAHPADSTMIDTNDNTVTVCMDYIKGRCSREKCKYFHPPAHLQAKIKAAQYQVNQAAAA

MBNL1 (GST-MBNL1 1-260) [2] = biological target: T1, MBNL1 (GST-MBNL1 1-260); remark: listed apart in the source
MBNL1 (GST-MBNL1 1-260) [3] = biological target: T1, MBNL1 (GST-MBNL1 1-260); remark: listed apart in the source
MBNL1 (GST-MBNL1 1-260) [4] = biological target: T1, MBNL1 (GST-MBNL1 1-260); remark: listed apart in the source
MBNL1 (GST-MBNL1 1-260) [5] = biological target: T1, MBNL1 (GST-MBNL1 1-260); remark: listed apart in the source

Binder | Kd (MBNL1 (GST-MBNL1 1-260) [1]) | further results
GCCGAGGAGGUGGUGUGAUUGCUUUAGCGCCGUCAUUUUC (ssRNA) [GRIN1] | 280 nM | 
CCUGCUUCGCUUCUGCAUUGUUCGGCCGGUUG (ssRNA) [A04 32mer] | 180 nM | 
B1 | 30 nM | 
B2 |  | binding signal (MBNL1 (GST-MBNL1 1-260) [2]): 12 fold lower affinity than H01
GCGGCGGGCAGCUGUGCUGGAGAGCAGAUGCUUCACCAAU (ssRNA) [INSR] | 120 nM | 
B3 |  | binding signal (MBNL1 (GST-MBNL1 1-260) [3]): 140 fold lower affinity than F06
CCUGUCUCGCUUUUCCCCUCCGCUGCGGCCAC (ssRNA) [TNNT2 32mer] | 20 nM | 
UGCCACUGCUGCUGCUGCGCUUCCAGUCAGGGUGGGCCGC (ssRNA) [ATP2A1] | 15 nM | 
CCUUUAUUGUGCAUGCUUAGUCUUGUUAUUCGUUGUAUAU (ssRNA) [MBNL1 site #2] | 45 nM | 
CCGAUCCCGCUUAUGCCAUCCGCUGCAGUCAC (ssRNA) [F06 32mer] |  | binding result (MBNL1 (GST-MBNL1 1-260) [4]): binds
CUGCUUCUGCUUCUGCUUCUGCUUCUGCUUCUGCUU (ssRNA) [(CUGCUU)6 (SELEX motif 1)] |  | binding result (MBNL1 (GST-MBNL1 1-260) [5]): binds
UGUUCCUCGCUUUUCGCCUCCGCUUCCGCCGC (ssRNA) [B07 32mer] | 0.66 nM | 
